For one molecule, Kd results are on record in paper PMC8635433 (Science Advances, 2021).

The target of this assay is coxsackie and adenovirus receptor (CAR), immobilised for SPR (UniProt P78310 20-365). Description: SPR; BIAcore T200; about 2000 RU of CAR, DSG2 and CD46 amine-coupled to a CM5 chip; fiber knob proteins flowed over, 1:2 serial dilutions; 25°C, PBS with 0.001% P20, 30 μl/min; 1:1 interaction model. The conditions noted are these: both partners purified. For orientation: SPR reads the build-up and loss of mass on a sensor chip optically.
Sequence of coxsackie and adenovirus receptor (CAR), immobilised for SPR (P78310 20-365): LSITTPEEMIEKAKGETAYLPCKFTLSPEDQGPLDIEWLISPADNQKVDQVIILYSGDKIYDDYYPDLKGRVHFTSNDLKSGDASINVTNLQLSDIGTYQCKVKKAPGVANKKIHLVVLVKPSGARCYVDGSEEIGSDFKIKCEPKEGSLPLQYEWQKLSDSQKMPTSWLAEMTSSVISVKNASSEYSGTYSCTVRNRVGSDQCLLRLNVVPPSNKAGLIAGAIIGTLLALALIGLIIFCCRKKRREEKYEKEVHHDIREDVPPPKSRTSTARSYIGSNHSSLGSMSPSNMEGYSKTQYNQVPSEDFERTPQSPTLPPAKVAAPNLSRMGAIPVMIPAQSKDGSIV

B1: HAdV-C5 fiber knob protein (domain or fragment)
chain: TGAITVGNKNNDKLTLWTTPAPSPNCRLNAEKDAKLTLVLTKCGSQILATVSVLAVKGSLAPISGTVQSAHLIIRFDENGVLLNNSFLDPEYWNFRNGDLTEGTAYTNAVGFMPNLSAYPKSHGKTAKSNIVSQVYLNGDKTKPVTLTITLNGTQETGDTTPSAYSMSFSWDWSGHNYINEIFATSSYTFSYIAQE
notes: source: recombinant soluble knob protein, purified
As a reminder, the Kd is the concentration at which binding is half-saturated. Low values mean higher affinity, high ones lower affinity. B1 returned a Kd of 0.06 nM.
